Blank lines part the entries; values can stand above or below the substance they belong to.
How the values were obtained:
[1] = molecular target: αvβ3 and αvβ5 integrins on cells that express both (M21, A375S2/A375S.2, HUVEC) (human) (UniProt P06756); assay: flow cytometry on M21 cells; FITC-goat anti-human Fc-labeled CNTO95 at 20 µg/mL, saline instead of competitor
[2] = molecular target: αvβ3 and αvβ5 integrins on cells that express both (M21, A375S2/A375S.2, HUVEC) (human) (UniProt P06756); assay: cell-based or functional assay
[3] = molecular target: αvβ3 and αvβ5 integrins on cells that express both (M21, A375S2/A375S.2, HUVEC) (human) (UniProt P06756); assay: flow cytometry on M21 cells; FITC-goat anti-human Fc-labeled CNTO95 at 2 µg/mL, saline instead of competitor
[4] = molecular target: human αvβ3 integrin on cells (human) (UniProt P06756); assay: flow cytometry on M21 cells; signal of the competitor FITC-labeled CNTO95 at 2 µg/mL; row antibody at 20 µg/mL; set-up: % Positive: reference not given here
[5] = molecular target: human αvβ3 integrin on cells (human) (UniProt P06756); assay: flow cytometry on M21 cells; signal of the competitor FITC-labeled CNTO95 at 20 µg/mL; row antibody at 20 µg/mL
[6] = molecular target: human αvβ5 integrin on cells (human) (UniProt P06756); assay: flow cytometry on M21 cells; signal of the competitor FITC-labeled CNTO95 at 2 µg/mL; row antibody at 20 µg/mL; set-up: % Positive: reference not given here
[7] = molecular target: human αvβ5 integrin on cells (human) (UniProt P06756); assay: flow cytometry on M21 cells; signal of the competitor FITC-labeled CNTO95 at 20 µg/mL; row antibody at 20 µg/mL
[8] = scale: % of cell adhesion in the absence of antibody

- MCF (median channel fluorescence) [1]: 14.3
- minimal concentration for complete inhibition of MDAMB435L2 cell adhesion to vitronectin [2]: 1.5 µg/mL
- A375S.2 cell adhesion to fibrin, antibody 10 µg/ml [2, 8]: 43.3
- A375S.2 cell adhesion to fibrinogen, antibody 10 µg/ml [2, 8]: 11.4
- A375S.2 cell adhesion to gelatin, antibody 10 µg/ml [2, 8]: 23.2
- A375S.2 cell adhesion to vitronectin, antibody 10 µg/ml [2, 8]: 1.4
- HUVEC adhesion to fibrin, antibody 10 µg/ml [2, 8]: 45.1
- HUVEC adhesion to fibrinogen, antibody 10 µg/ml [2, 8]: 34.5
- HUVEC adhesion to gelatin, antibody 10 µg/ml [2, 8]: 54.8
- HUVEC adhesion to vitronectin, antibody 10 µg/ml [2, 8]: 3.3
- MCF (median channel fluorescence) [3]: 4.33
Substance: CNTO 95 (antibody)

- % Positive [4]: 110%
- MCF (median channel fluorescence) [4]: 4.78
- % Positive [5]: 93%
- MCF (median channel fluorescence) [5]: 13.3
Substance: LM609 (antibody)

- % Positive [4]: 132%
- MCF (median channel fluorescence) [4]: 5.73
- % Positive [5]: 103%
- MCF (median channel fluorescence) [5]: 14.7
Substance: m7E3 IgG (antibody)

- % Positive [6]: 112%
- MCF (median channel fluorescence) [6]: 4.87
- % Positive [7]: 101%
- MCF (median channel fluorescence) [7]: 14.5
Substance: P1F6 (antibody)

From patent publication US20090217392A1
